Key:
[1] = molecular target: β1 adrenergic receptor with an intact ICL3 (M. gallopavo β114E130WIC3) (M. gallopavo) (UniProt P07700)
[2] = molecular target: truncated β1 adrenergic receptor (M. gallopavo β114-E130W, without an intact ICL3) (M. gallopavo) (UniProt P07700)

- GDP release (decay of BODIPY FL GDP fluorescence) after addition of isoprenaline, 20 °C [1]: 60 s
- GDP release (decay of BODIPY FL GDP fluorescence) after addition of isoprenaline, 20 °C [2]: 60 s
Substance: mini Gs (engineered GTPase domain of the Gαs protein), construct R414, I208A (domain or fragment)

Source: article PMC11487556
